# Patent publication CN114106164A (HANGZHOU PINK BIOTECHNOLOGY LTD COMPANY, dated 2022)
# Columns and labels:
# [1] = molecular target: T1, SARS-CoV-2-RBD蛋白 (重组6X His标记的RBD蛋白) (SARS-CoV-2, UniProt P0DTC2 319-541); test: indirect ELISA, ascites, antigen coated 3ug/ml
# [2] = molecular target: T1, SARS-CoV-2-RBD蛋白 (重组6X His标记的RBD蛋白); test: indirect ELISA, purified antibody, antigen coated 3ug/ml
# [3] = molecular target: T2, SARS-CoV Spike/RBD Protein(RBD,His Tag)，货号40150-V08B2 (SARS-CoV, UniProt P59594 306-527); test: ELISA, cross-reactivity test
# T2 construct: domain: RBD
# [4] = molecular target: T3, MERS-CoV Spike/RBD Protein fragment(RBD,aa 367-606,His Tag)，货号40071-V08B1 (MERS-CoV, UniProt K9N5Q8 367-606); test: ELISA, cross-reactivity test
# T3 construct: range 367-606; Bought reagent
Binder,ELISA OD at 稀释倍数 100 [1],ELISA OD at 稀释倍数 500 [1],ELISA OD at 稀释倍数 2500 [1],ELISA OD at 稀释倍数 12500 [1],ELISA OD at 稀释倍数 62500 [1],ELISA OD at 稀释倍数 312500 [1],ELISA OD at 稀释倍数 1562500 [1],ELISA OD at 1.28ng/ml [2],ELISA OD at 6.4ng/ml [2],ELISA OD at 32ng/ml [2],ELISA OD at 160ng/ml [2],ELISA OD at 800ng/ml [2],ELISA OD at 4ug/ml [2],ELISA OD at 20ug/ml [2],binding result [3],binding result [4]
"B1-1 (antibody, V domains shown) VH: QVQLVESGGGLVQPGGSLRLSCAASGFTFDDYAMSWVRQAPGKGLEWVSNIYSYISTTHYADSVKGRFTISTDNAKNTLYLQMNSLKPEDTAVYYCAARRLDTTDYKYWGQGTQVTVSS",1.43,1.31,1.4,1.26,0.545,0.19,0.084,0.072,0.088,0.154,0.38,0.929,1.19,1.35,–,–
"Mouse anti-SARS-COV-2 Mab1(RBD-Ab) (antibody, V domains shown, also called B1-5; B1-5号抗体) VH: VKLQESGAELVRPGTSVKVSCKASGYAFTNYLIEWVKQRPGQGLEWIGVINPGSGGTNYNEKFKGKATLTADKSSSTAYMQLSSLTSDDSAVYFCARGRADYWGQGTSVTVSS VL: DILMTQSPSSMSVSLGDTVSITCHASQGFSSNIGWLQQKPGKSFKGLIYHGTNLEDGVPSRFSGSGSGADYSLTISSLESEDFADYYCVQYAQFPYTFGGGTKLEIK",–,–,–,–,–,–,–,–,–,–,–,–,–,–,no binding,no binding
"A2-4 (antibody, V domains shown) VH: EVKLMESGGGLVQPGGSLKLSCAASGFDFSRYWMSWVRQAPGEGLEWIGEINPDSSTISYTPSLKDKFIISRDNAKNTLYLQMSKVRSEDTALYYCARRGLLLLTMDYWGQGTSVTVSS VL: DIVMTQSPKSLSMSVGERVTLSCKASENVDTYVSWYQQKPEQSPKLLIYGASNRYTGVPDRFTGSGSATYFTLTISSVQAEDLADYHCGQTYSYPFTFGSGTKLEIK",1.39,1.36,1.43,0.84,0.373,0.121,0.072,0.106,0.126,0.149,0.279,0.584,1.33,1.95,–,–
"B1-2 (antibody, V domains shown) VH: QVQLVESGGGFVQPGGSLRLSCAVSGGTFSTYGMGWFRQAPGKEREIVAAIRRSGSTYYADSVRGRFTISRDNAKNSVLLQMNSLKPEDTAVYYCAARRAGREYEYWGQGTQVTVSS",1.85,1.61,1,0.297,0.118,0.091,0.081,0.073,0.085,0.127,0.26,0.647,1.49,2.04,–,–
"A2-2 (antibody, V domains shown) VH: not shown VL: EIVLTQSPGTLSLSPGERATLSCRASQTVRSDLAWYQQKPGQAPRLLIYGASTRATDISDRFSGSGSGTEFTLTISSLQSEDFAVYYCQQYYEWPPHSDSFGGGTKVEIK",1.53,1.49,1.46,1.06,0.508,0.155,0.077,0.115,0.229,0.447,0.689,1.27,1.62,1.72,–,–
